Results on 11 variants are retold here after IntAct's records for PubMed 31515488.

The labels stand for the following.
B1: Transcription factor 12 (Homo sapiens), Q99081 (parent)
chain: MNPQQQRMAAIGTDKELSDLLDFSAMFSPPVNSGKTRPTTLGSSQFSGSGIDERGGTTSWGTSGQPSPSYDSSRGFTDSPHYSDHLNDSRLGAHEGLSPTPFMNSNLMGKTSERGSFSLYSRDTGLPGCQSSLLRQDLGLGSPAQLSSSGKPGTAYYSFSATSSRRRPLHDSAALDPLQAKKVRKVPPGLPSSVYAPSPNSDDFNRESPSYPSPKPPTSMFASTFFMQDGTHNSSDLWSSSNGMSQPGFGGILGTSTSHMSQSSSYGNLHSHDRLSYPPHSVSPTDINTSLPPMSSFHRGSTSSSPYVAASHTPPINGSDSILGTRGNAAGSSQTGDALGKALASIYSPDHTSSSFPSNPSTPVGSPSPLTGTSQWPRPGGQAPSSPSYENSLHSLQSRMEDRLDRLDDAIHVLRNHAVGPSTSLPAGHSDIHSLLGPSHNAPIGSLNSNYGGSSLVASSRSASMVGTHREDSVSLNGNHSVLSSTVTTSSTDLNHKTQENYRGGLQSQSGTVVTTEIKTENKEKDENLHEPPSSDDMKSDDESSQKDIKVSSRGRTSSTNEDEDLNPEQKIEREKERRMANNARERLRVRDINEAFKELGRMCQLHLKSEKPQTKLLILHQAVAVILSLEQQVRERNLNPKAACLKRREEEKVSAVSAEPPTTLPGTHPGLSETTNPMGHM
partner: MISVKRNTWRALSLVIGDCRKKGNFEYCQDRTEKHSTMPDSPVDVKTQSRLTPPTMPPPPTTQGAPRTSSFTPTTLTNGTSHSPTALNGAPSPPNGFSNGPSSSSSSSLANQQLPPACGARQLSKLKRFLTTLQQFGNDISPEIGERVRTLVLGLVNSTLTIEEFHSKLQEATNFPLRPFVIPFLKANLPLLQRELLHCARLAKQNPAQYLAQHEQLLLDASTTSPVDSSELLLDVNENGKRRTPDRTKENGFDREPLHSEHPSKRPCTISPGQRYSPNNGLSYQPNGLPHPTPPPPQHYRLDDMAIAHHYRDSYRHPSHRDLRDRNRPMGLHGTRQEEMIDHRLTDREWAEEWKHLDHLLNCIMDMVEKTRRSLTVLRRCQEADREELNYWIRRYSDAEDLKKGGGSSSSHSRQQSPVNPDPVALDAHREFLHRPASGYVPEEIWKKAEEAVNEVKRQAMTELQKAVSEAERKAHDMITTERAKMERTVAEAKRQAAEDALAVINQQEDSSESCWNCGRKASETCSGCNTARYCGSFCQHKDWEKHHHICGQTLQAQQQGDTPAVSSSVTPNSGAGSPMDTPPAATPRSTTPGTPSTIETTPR
B2: TBC1 domain family member 5 (Homo sapiens), Q92609 (parent)
chain: MYHSLSETRHPLQPEEQEVGIDPLSSYSNKSGGDSNKNGRRTSSTLDSEGTFNSYRKEWEELFVNNNYLATIRQKGINGQLRSSRFRSICWKLFLCVLPQDKSQWISRIEELRAWYSNIKEIHITNPRKVVGQQDLMINNPLSQDEGSLWNKFFQDKELRSMIEQDVKRTFPEMQFFQQENVRKILTDVLFCYARENEQLLYKQGMHELLAPIVFVLHCDHQAFLHASESAQPSEEMKTVLNPEYLEHDAYAVFSQLMETAEPWFSTFEHDGQKGKETLMTPIPFARPQDLGPTIAIVTKVNQIQDHLLKKHDIELYMHLNRLEIAPQIYGLRWVRLLFGREFPLQDLLVVWDALFADGLSLGLVDYIFVAMLLYIRDALISSNYQTCLGLLMHYPFIGDVHSLILKALFLRDPKRNPRPVTYQFHPNLDYYKARGADLMNKSRTNAKGAPLNINKVSNSLINFGRKLISPAMAPGSAGGPVPGGNSSSSSSVVIPTRTSAEAPSHHLQQQQQQQRLMKSESMPVQLNKGLSSKNISSSPSVESLPGGREFTGSPPSSATKKDSFFSNISRSRSHSKTMGRKESEEELEAQISFLQGQLNDLDAMCKYCAKVMDTHLVNIQDVILQENLEKEDQILVSLAGLKQIKDILKGSLRFNQSQLEAEENEQITIADNHYCSSGQGQGRGQGQSVQMSGAIKQASSETPGCTDRGNSDDFILISKDDDGSSARGSFSGQAQPLRTLRSTSGKSQAPVCSPLVFSDPLMGPASASSSNPSSSPDDDSSKDSGFTIVSPLDI
B3: Inactive peptidyl-prolyl cis-trans isomerase FKBP6 (Homo sapiens), O75344 (parent)
chain: MGGSALNQGVLEGDDAPGQSLYERLSQRMLDISGDRGVLKDVIREGAGDLVAPDASVLVKYSGYLEHMDRPFDSNYFRKTPRLMKLGEDITLWGMELGLLSMRRGELARFLFKPNYAYGTLGCPPLIPPNTTVLFEIELLDFLDCAESDKFCALSAEQQDQFPLQKVLKVAATEREFGNYLFRQNRFYDAKVRYKRALLLLRRRSAPPEEQHLVEAAKLPVLLNLSFTYLKLDRPTIALCYGEQALIIDQKNAKALFRCGQACLLLTEYQKARDFLVRAQKEQPFNHDINNELKKLASCYRDYVDKEKEMWHRMFAPCGDGSTAGES
partner: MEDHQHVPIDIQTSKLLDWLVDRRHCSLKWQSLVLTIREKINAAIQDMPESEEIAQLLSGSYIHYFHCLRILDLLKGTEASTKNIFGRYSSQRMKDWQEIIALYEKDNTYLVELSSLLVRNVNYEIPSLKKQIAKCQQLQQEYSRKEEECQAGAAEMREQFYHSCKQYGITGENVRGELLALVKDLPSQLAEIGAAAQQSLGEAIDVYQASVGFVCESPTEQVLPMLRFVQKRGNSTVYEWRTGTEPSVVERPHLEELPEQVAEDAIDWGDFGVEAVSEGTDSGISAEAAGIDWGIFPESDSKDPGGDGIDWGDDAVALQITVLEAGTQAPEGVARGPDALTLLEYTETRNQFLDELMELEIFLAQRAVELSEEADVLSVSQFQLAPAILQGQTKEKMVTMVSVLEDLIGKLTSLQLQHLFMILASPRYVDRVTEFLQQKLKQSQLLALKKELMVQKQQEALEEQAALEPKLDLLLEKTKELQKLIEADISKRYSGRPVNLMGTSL

One experiment covers variants of B1. Particulars: with mtg8_human RUNX1T1, Q06455.
As for D565V, the “effect of a mutation on the interaction” value is given as “with no effect”.

N479S: the “effect of a mutation on the interaction” value is recorded as “with no effect”.

G64R: the “effect of a mutation on the interaction” value is “with no effect”.

Take L483R: the “effect of a mutation on the interaction” value is given as “with no effect”.

For the variant A174V, the “effect of a mutation on the interaction” value is reported as “with no effect”.

In the case of I11M, the “effect of a mutation on the interaction” value is given as “with no effect”.

With A458V, the “effect of a mutation on the interaction” value was “with no effect”.

With V31A, the “effect of a mutation on the interaction” value is listed as “with no effect”.

The variants in another experiment derive from B2. Particulars: with ap2m1_human AP2M1, Q96CW1.
Sequence of ap2m1_human AP2M1, Q96CW1 (Q96CW1 whole entry): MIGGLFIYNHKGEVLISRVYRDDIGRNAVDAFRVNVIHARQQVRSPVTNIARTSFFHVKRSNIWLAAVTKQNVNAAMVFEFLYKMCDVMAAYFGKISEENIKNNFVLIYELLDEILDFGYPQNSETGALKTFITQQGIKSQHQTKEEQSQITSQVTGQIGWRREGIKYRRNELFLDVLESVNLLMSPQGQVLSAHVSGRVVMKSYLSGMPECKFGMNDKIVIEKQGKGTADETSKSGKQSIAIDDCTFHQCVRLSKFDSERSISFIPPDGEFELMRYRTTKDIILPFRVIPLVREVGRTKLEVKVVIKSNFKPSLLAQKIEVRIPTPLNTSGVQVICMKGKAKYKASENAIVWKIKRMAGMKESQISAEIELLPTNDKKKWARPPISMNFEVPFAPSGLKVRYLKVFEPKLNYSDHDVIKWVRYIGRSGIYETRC
For the variant Y375C, the “effect of a mutation on the interaction” value is “with no effect”.

Variants of B3 are the subject of the next experiment. Particulars: with ck5p3_human CDK5RAP3, Q96JB5.
Regarding H287N, the “effect of a mutation on the interaction” value is listed as “with no effect”.

For the variant R175Q, the “effect of a mutation on the interaction” value is recorded as “with no effect”.
